Results: publication PMC9598796 (2022)

Biological target: biotinylated Stx2a holotoxin (Shiga toxin-producing E. coli (STEC), UniProt P09385;P09386)
Experiment: BLI

Sequence of biotinylated Stx2a holotoxin (P09385 23-319, chain 1 of 2): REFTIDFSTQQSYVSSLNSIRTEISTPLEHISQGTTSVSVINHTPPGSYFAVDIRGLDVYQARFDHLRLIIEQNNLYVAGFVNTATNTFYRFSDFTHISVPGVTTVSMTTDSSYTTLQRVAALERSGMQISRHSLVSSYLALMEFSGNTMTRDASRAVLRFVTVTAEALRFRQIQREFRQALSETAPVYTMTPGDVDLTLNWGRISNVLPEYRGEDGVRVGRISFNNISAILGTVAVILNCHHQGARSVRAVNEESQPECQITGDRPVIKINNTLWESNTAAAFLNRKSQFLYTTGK
Sequence of biotinylated Stx2a holotoxin (P09386 20-89, chain 2 of 2): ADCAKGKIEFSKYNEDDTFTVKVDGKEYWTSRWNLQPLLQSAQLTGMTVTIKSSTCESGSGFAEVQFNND

| Binder | koff [s⁻¹] |
| --- | --- |
| dimeric DARPin SD5 (#3-SHT) (designed binder) GKKLLEAARAGQDDEVRILMANGADVNACDSNGRTPLHLAAVRGHLEIVEVLLKNGADVNAWDVIGKTPLHLAADGGHLEIVEVLLKNGADVNAWDLIGRTPLHLAALDGHLEIVEVLLEHGADVNAYDRPGHTPLHLAARRGHLEIVEVLLKYGADVNAQDKFGKTAFDISIDNGNEDLAEILQGGGGSGGGGSGGGGSGGGGSGKKLLEAARAGQDDEVRILVANGADVNAGDPFGFTPLHLAALYGHLEIVEVLLKNGADVNAHEEYGFTPLHLAAVVSHMEIVEVLLNNGADVNARDNQGGSPLHLASHTGHLEIVEVLLKQGADVNAQDKFGKTAYDISIDIGNEDLAEILQ | 0.0126 |
| DARPin #3 (designed binder) GKKLLEAARAGQDDEVRILMANGADVNACDSNGRTPLHLAAVRGHLEIVEVLLKNGADVNAWDVIGKTPLHLAADGGHLEIVEVLLKNGADVNAWDLIGRTPLHLAALDGHLEIVEVLLEHGADVNAYDRPGHTPLHLAARRGHLEIVEVLLKYGADVNAQDKFGKTAFDISIDNGNEDLAEILQ | 0.0438 |
